The text below walks through data of patent US20050142101A1.

In one experiment the target is CCL14[9-74] (human) (UniProt Q16627).
Experiment [1] addresses CXCL12 (SDF-1α) (Homo sapiens (Human)) (UniProt P48061).
The target in experiment [2] is CCL11 (eotaxin) (Homo sapiens (Human)) (UniProt P51671).

Regarding “porcine kidney DPP IV/CD26 (from UniProt P22411) (enzyme)”, the values for the CD26/DPP IV processing in vitro, MALDI mass spectrometry (time to complete processing) (in the experiment with CCL14[9-74] (human); in experiment [1]; in experiment [2]) were 12 h, 10 min and 1 h, respectively.
